The values below come from article PMC5778462.

Common to all, as to assay: EMSA
For orientation: Mobility shift assays separate free from complexed probe on a gel.

One data set deals with T1, MAZ (UniProt P56270).
T1 sequence: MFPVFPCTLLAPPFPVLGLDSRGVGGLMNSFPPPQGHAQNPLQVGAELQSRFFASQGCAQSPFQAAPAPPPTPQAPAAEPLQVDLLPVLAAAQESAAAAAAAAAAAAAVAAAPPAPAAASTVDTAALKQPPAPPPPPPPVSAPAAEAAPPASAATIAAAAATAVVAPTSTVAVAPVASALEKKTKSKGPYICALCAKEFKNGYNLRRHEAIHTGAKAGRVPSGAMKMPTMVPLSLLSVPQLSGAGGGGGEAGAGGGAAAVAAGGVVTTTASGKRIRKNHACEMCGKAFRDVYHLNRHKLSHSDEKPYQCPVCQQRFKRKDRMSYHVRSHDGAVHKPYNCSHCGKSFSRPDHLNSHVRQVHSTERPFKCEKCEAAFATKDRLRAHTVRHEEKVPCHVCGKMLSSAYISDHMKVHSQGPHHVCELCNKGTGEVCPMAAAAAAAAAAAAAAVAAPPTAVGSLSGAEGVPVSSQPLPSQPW

Data set [1] addresses T2, OGG1 (hOGG1) (UniProt O15527 1-345).
In data set [2] the target is T2, OGG1 (hOGG1). The source holds these as a separate data set.

Read-outs that look alike come from different tables or passages of the source.

T2 sequence (O15527 whole entry): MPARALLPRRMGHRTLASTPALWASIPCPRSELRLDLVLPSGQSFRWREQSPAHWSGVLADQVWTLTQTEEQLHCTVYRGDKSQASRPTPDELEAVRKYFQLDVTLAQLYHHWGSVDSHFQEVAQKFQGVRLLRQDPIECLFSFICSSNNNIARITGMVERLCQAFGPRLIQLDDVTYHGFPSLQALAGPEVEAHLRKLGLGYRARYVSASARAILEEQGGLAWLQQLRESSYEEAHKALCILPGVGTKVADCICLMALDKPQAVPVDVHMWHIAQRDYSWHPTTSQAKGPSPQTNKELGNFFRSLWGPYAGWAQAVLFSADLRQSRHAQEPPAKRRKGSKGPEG

Turning to “AGGGCGGTGTGGGAAGAGGGAAGAGGGGGAGG [96 G4]”, the binding signal (fold vs 32R G4) with MAZ (8-oxoG in 11-nt loop (Table 1: one; text: two; positions only in figure)) turned out to be 5.

“AGGGCGGTGTGGGAAGAGGGAAGAGGGGGAGG [97 G4]” registered a binding signal (fold vs 32R G4) in the data set with MAZ (8-oxoG at G16 and G23) of 5.

The molecule “AGGGCGGTGTGGGAAGAGGGAAGAGGGGGAGG [95 G4]” returned a binding signal (fold vs 32R G4) with MAZ (8-oxoG at G16) of 5.

With “AGGGCGGTGTGGGAAGAGGGAAGAGGGGGAGG [32R G4]”, the binding signal in the data set with MAZ is 1 reference.

Regarding AGGGCGGTGTGGGAAGAGGGAAGAGGGGGAGG (structured_DNA) [32R G4], the binding result in the data set with OGG1 (hOGG1) [1] is listed as “binds”.

As to AGGGCGGTGTGGGAAGAGGGAAGAGGGGGAGG (structured_DNA, two 8-oxoG in G-tetrad runs (exact positions only in figure)) [94 G4], in the data set with OGG1 (hOGG1) [2], the binding result is listed as “binds”.

Consider AGGGCGGTGTGGGAAGAGGGAAGAGGGGGAGG (structured_DNA, one 8-oxoG in G-run III (exact position only in figure)) [93 G4], for which, in the data set with OGG1 (hOGG1) [2], the binding result is “binds”.

In the case of AGGGCGGTGTGGGAAGAGGGAAGAGGGGGAGG (structured_DNA, 8-oxoG at G6) [92 G4], in the data set with OGG1 (hOGG1) [2], the binding result is listed as “binds”.
